Experiment [1] addresses transmembrane CX3CL1, expressed in LOX melanoma cells (human) (UniProt P78423). Description: cross-linking; isolated membranes of tm-chemokine overexpressing LOX cells (1.5 mg membrane protein, 0.2 M triethanolamine-hydrochloride pH 8.0) with 2 nM recombinant s-chemokine over night at 4°C; 1% paraformaldehyde 1 hr at room temperature; SDS-PAGE and Western blot. For orientation: In western blotting, separated proteins are transferred to a membrane and probed.

Experiment [2] concerns the target T1, transmembrane CXCL16 with a hemagglutinin tag, expressed in LOX melanoma cells (human, UniProt Q9H2A7 30-254).
T1 construct: CXCL16, transmembrane form; expression vector CXCL16-HA in pcDNA3.1 as described in Abel et al., 2004; called full-length tm-chemokine in the results; also called tm-CXCL16; CXCL16-HA; source: LOX melanoma cells, transfected (pcDNA3.1), on cells or in isolated membranes
T1 sequence (looked up): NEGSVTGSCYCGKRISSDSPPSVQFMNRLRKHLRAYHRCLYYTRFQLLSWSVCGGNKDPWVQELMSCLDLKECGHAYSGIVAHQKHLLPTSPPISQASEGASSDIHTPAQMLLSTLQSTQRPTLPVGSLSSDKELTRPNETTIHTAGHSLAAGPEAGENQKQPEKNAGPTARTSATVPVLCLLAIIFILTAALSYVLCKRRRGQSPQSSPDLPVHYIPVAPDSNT
The experiment is described as above. The settings on record: one partner purified.

These results are taken from article PMC4739769, “Transmembrane chemokines act as receptors in a novel mechanism termed inverse signaling” (eLife, 2016).

transmembrane CX3CL1, expressed in LOX melanoma cells (human), sequence (P78423 25-397): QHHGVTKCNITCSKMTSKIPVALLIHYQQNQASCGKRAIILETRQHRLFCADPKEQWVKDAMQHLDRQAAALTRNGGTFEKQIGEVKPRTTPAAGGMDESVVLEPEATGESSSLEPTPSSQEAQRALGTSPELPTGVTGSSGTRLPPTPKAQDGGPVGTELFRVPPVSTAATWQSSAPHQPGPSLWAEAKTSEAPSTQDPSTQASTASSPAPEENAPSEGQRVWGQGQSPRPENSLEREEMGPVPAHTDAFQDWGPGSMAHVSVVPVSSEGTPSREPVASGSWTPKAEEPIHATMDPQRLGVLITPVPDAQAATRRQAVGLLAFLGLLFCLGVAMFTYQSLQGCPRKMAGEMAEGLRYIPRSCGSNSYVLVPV

The term stoichiometry N denotes the number of molecules, sites or subunits per partner or assembly. “soluble CX3CL1 (recombinant human chemokine) (ligand)”: the stoichiometry N in experiment [1] is 1 to 2.

B1: soluble CXCL16 (recombinant human chemokine) (ligand)
chain: NEGSVTGSCYCGKRISSDSPPSVQFMNRLRKHLRAYHRCLYYTRFQLLSWSVCGGNKDPWVQELMSCLDLKECGHAYSGIVAHQKHLLP
modifications: Cy3 (monoreactive NHS ester) for light microscopy; biotin (One-step antibody biotinylation kit) for flow cytometry; adsorbed to 5 nm gold particles for electron microscopy; no label named for cross-linking and stimulation
Consider B1, for which, in experiment [2], the “stoichiometry N” value lay within 1 to 2.
